Results from PMC4038756 (Theranostics, 2014).
Blank lines part the entries; values can stand above or below the compound they belong to.

Experiments:
[1] = target: purified αvβ6 (Homo sapiens, UniProt P06756+P18564); assay: Binding assay on purified integrins; settings: purified αvβ6, up to 1 µM
[2] = target: αvβ6 integrin-positive H2009 human NSCLC cells (Homo sapiens, UniProt P06756+P18564); assay: Peptide competition assay: inhibition of H2009.1 peptide phage binding to cells
[3] = Small animal PET/CT imaging, H460 tumor bearing mice; assay type: in vivo, NOD/SCID mice; settings: NOD/SCID, mouse, iv, total radioactivity
[4] = test system: H460 (αvβ6^-) xenografts; assay: as above; assay type: in vivo, NOD/SCID mice; settings: H460 tumor bearing mice, quantitative PET, mean ± s.d., n = 3
[5] = Small animal PET/CT imaging, H2009 tumor bearing mice; assay type: in vivo, NOD/SCID mice; settings: NOD/SCID, mouse, iv, total radioactivity
[6] = test system: H2009 (αvβ6^+) xenografts; assay: as above; assay type: in vivo, NOD/SCID mice; settings: H2009 tumor bearing mice, n = 3; for Tumor uptake: quantitative PET, mean ± s.d.; for Tumor/Lung: ratio of PET uptakes

Sequence of αvβ6 integrin-positive H2009 human NSCLC cells (P18564 22-788): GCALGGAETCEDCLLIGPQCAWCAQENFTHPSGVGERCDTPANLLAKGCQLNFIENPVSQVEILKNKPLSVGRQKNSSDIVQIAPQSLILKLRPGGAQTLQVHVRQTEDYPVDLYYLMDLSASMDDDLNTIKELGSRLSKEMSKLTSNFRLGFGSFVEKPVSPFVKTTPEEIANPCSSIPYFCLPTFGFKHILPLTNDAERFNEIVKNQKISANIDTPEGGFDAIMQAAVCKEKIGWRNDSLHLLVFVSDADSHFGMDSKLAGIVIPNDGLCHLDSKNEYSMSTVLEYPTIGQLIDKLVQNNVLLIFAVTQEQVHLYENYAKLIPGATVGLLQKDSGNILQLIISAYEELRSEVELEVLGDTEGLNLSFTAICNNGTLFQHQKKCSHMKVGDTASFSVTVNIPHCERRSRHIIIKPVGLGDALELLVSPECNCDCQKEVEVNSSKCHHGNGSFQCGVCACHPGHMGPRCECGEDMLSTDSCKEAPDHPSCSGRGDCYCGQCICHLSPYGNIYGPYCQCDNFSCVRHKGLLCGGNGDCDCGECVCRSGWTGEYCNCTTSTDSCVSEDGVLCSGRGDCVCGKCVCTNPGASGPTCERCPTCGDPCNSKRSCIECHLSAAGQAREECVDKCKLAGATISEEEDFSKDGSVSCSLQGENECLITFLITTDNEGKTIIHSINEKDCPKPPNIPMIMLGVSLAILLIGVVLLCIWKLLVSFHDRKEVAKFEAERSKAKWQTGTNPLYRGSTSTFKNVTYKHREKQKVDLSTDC
Sequence of αvβ6 integrin-positive H2009 human NSCLC cells (P06756 891-1048): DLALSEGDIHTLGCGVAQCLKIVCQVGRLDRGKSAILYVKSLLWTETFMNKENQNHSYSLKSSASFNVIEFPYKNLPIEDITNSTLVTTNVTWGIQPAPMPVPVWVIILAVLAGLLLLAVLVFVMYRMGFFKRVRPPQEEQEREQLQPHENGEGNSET
Sequence of αvβ6 integrin-positive H2009 human NSCLC cells (P06756 31-889): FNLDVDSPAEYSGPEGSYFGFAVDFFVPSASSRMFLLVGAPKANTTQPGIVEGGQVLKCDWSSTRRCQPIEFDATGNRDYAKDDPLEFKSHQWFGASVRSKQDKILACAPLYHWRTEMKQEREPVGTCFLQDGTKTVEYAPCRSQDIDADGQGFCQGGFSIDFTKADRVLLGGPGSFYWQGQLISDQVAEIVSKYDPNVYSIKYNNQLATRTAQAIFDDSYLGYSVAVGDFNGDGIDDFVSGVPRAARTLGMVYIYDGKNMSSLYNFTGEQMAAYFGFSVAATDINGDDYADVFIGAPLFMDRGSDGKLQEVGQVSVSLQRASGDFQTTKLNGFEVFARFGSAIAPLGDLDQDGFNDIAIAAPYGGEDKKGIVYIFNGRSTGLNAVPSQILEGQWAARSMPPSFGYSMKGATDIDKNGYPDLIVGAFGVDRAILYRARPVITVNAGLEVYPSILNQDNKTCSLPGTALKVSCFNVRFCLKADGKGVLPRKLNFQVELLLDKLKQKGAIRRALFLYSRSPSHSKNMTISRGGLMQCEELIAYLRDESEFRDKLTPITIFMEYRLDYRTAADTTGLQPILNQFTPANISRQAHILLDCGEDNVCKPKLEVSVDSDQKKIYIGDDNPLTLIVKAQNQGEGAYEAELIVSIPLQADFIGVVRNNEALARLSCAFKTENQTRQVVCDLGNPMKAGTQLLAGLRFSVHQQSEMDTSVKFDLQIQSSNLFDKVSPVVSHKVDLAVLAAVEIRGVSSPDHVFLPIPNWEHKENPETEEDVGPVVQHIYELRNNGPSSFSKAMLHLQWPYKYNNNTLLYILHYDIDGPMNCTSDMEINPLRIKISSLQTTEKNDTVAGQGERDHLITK
Sequence of purified αvβ6 (P06756 31-992 limits assumed): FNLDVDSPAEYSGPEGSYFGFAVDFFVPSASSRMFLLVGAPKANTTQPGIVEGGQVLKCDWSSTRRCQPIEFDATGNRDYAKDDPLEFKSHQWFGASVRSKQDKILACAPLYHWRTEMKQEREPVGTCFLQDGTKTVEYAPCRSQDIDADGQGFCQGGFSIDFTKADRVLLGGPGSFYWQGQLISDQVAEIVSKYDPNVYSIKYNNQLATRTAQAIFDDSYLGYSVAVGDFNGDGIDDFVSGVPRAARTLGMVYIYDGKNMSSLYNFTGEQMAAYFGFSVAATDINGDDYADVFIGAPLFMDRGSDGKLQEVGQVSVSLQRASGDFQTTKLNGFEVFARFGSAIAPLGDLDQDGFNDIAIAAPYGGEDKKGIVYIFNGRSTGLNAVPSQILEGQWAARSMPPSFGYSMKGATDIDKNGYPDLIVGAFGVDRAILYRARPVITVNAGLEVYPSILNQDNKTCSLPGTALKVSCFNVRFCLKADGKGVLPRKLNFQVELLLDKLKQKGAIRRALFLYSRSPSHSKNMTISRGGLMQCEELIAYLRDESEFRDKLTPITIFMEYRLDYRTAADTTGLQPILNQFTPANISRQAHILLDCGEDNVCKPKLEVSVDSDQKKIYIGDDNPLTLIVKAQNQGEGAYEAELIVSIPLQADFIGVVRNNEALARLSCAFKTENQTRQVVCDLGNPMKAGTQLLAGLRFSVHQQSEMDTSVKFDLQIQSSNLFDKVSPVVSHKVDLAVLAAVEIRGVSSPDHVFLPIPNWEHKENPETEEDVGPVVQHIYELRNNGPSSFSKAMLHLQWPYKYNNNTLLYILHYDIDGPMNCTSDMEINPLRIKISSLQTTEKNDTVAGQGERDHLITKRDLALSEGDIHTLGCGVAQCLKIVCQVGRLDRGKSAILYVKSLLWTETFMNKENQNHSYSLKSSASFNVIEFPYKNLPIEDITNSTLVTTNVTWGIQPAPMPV
Sequence of purified αvβ6 (P18564 22-707 limits assumed): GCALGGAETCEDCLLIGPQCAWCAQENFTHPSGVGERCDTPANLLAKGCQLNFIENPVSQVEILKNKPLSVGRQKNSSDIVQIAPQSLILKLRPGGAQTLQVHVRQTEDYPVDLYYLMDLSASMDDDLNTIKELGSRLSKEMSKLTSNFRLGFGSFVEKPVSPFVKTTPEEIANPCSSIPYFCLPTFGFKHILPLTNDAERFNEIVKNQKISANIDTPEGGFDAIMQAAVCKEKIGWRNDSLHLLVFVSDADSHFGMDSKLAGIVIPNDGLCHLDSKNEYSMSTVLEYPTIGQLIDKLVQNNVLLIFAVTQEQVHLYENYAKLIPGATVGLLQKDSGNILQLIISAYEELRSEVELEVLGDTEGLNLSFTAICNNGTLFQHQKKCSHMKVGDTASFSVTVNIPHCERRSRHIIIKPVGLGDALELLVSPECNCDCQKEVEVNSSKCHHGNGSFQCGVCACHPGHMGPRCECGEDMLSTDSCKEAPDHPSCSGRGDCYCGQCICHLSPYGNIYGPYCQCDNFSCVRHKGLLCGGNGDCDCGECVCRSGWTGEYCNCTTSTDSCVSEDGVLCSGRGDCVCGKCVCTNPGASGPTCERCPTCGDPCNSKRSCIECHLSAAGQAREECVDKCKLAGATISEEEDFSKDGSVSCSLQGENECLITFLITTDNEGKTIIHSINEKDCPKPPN

- binding to αvβ6 [1]: no detectable binding
SMILES: N=C(N)NCCC[C@@H]1NC(=O)[C@H](CCCCN)NC(=O)[C@@H](Cc2ccc(O)cc2)NC(=O)[C@H](CC(=O)O)NC(=O)CNC1=O [cRGDyK]

SMILES: CC(C)C[C@H](NC(=O)[C@H](CCC(N)=O)NC(=O)[C@H](CCCNC(=N)N)NC(=O)[C@H](CC(C)C)NC(=O)[C@@H](NC(=O)[C@H](C)NC(=O)[C@H](CC(C)C)NC(=O)[C@H](CC(=O)O)NC(=O)CNC(=O)[C@@H](N)CCCNC(=N)N)[C@@H](C)O)C(=O)NCCOCCOCCOCCOCCOCCOCCOCCOCCOCCOCCOCCOCCC(=O)N[C@@H](CSC1CC(=O)N(CCNC(=O)CCC(C(=O)O)N2CCCN3CCN(CCCN(CC(=O)O)CC3)CC2)C1=O)C(N)=O (some centres unmarked) [H2-M10]
- IC50 [2]: 4.5 nM

SMILES: CC(C)C[C@H](NC(=O)[C@H](CCC(N)=O)NC(=O)[C@H](CCCNC(=N)N)NC(=O)[C@H](CC(C)C)NC(=O)[C@@H](NC(=O)[C@H](C)NC(=O)[C@H](CC(C)C)NC(=O)[C@H](CC(=O)O)NC(=O)CNC(=O)[C@@H](N)CCCNC(=N)N)[C@@H](C)O)C(=O)NCCOCCOCCOCCOCCOCCOCCOCCOCCOCCOCCOCCOCCC(=O)N[C@@H](CSC1CC(=O)N(CCNC(=O)CCC(C(=O)O)N2CCCN3CCN(CCCN(CC(=O)O)CC3)CC2)C1=O)C(N)=O (some centres unmarked) [^64Cu-M10, metal not drawn]
- tissue uptake at 1 h ([3]; heart): 1.02 ± 0.17 %ID/g
- tissue uptake at 4 h ([3]; heart): 0.65 ± 0.12 %ID/g
- tissue uptake at 24 h ([3]; heart): 0.33 ± 0.03 %ID/g
- tissue uptake at 1 h ([3]; kidney): 14 ± 2.4 %ID/g
- tissue uptake at 4 h ([3]; kidney): 12.5 ± 2.33 %ID/g
- tissue uptake at 24 h ([3]; kidney): 5.97 ± 1.01 %ID/g
- tissue uptake at 1 h ([3]; liver): 0.93 ± 0.12 %ID/g
- tissue uptake at 4 h ([3]; liver): 0.77 ± 0.06 %ID/g
- tissue uptake at 24 h ([3]; liver): 0.43 ± 0.05 %ID/g
- tissue uptake at 1 h ([3]; lung): 0.55 ± 0.09 %ID/g
- tissue uptake at 4 h ([3]; lung): 0.34 ± 0.07 %ID/g
- tissue uptake at 24 h ([3]; lung): 0.18 ± 0.02 %ID/g
- tissue uptake at 1 h ([3]; muscle): 0.15 ± 0.07 %ID/g
- tissue uptake at 4 h ([3]; muscle): 0.11 ± 0.04 %ID/g
- tissue uptake at 24 h ([3]; muscle): 0.1 ± 0.03 %ID/g
- Tumor uptake ([4]; 1 h p.i.): 0.34 ± 0.05 %ID/g
- Tumor uptake ([4]; 4 h p.i.): 0.24 ± 0.01 %ID/g
- Tumor uptake ([4]; 24 h p.i.): 0.19 ± 0.01 %ID/g
- tissue uptake at 1 h ([5]; heart): 1.02 ± 0.07 %ID/g
- tissue uptake at 4 h ([5]; heart): 0.42 ± 0.06 %ID/g
- tissue uptake at 24 h ([5]; heart): 0.16 ± 0.05 %ID/g
- tissue uptake at 1 h ([5]; kidney): 6.83 ± 0.35 %ID/g
- tissue uptake at 4 h ([5]; kidney): 6.23 ± 0.32 %ID/g
- tissue uptake at 24 h ([5]; kidney): 3.5 ± 0.36 %ID/g
- tissue uptake at 1 h ([5]; liver): 2.03 ± 0.23 %ID/g
- tissue uptake at 4 h ([5]; liver): 1.53 ± 0.21 %ID/g
- tissue uptake at 24 h ([5]; liver): 1.3 ± 0.1 %ID/g
- tissue uptake at 1 h ([5]; lung): 0.66 ± 0.08 %ID/g
- tissue uptake at 4 h ([5]; lung): 0.33 ± 0.11 %ID/g
- tissue uptake at 24 h ([5]; lung): 0.15 ± 0.04 %ID/g
- tissue uptake at 1 h ([5]; muscle): 0.3 ± 0.02 %ID/g
- tissue uptake at 4 h ([5]; muscle): 0.12 ± 0.02 %ID/g
- tissue uptake at 24 h ([5]; muscle): 0.14 ± 0.02 %ID/g
- Tumor uptake ([6]; 1 h p.i.): 0.55 ± 0.17 %ID/g
- Tumor/Lung ([6]; 1 h p.i.): 0.83 ± 0.18
- Tumor uptake ([6]; 4 h p.i.): 0.33 ± 0.11 %ID/g
- Tumor/Lung ([6]; 4 h p.i.): 1.0 ± 0.15
- Tumor uptake ([6]; 24 h p.i.): 0.28 ± 0.11 %ID/g
- Tumor/Lung ([6]; 24 h p.i.): 1.86 ± 0.11
